Values of other authors in publication PMC6684861 (Traffic (Copenhagen, Denmark), 2018).

Test system: mouse embryonic fibroblasts
Settings: ref unpublished observations

B1: DNA polymerase λ (protein, UniProt Q9UGP5 1-575, looked up)
DNA polymerase lambda: MDPRGILKAFPKRQKIHADASSKVLAKIPRREEGEEAEEWLSSLRAHVVRTGIGRARAELFEKQIVQHGGQLCPAQGPGVTHIVVDEGMDYERALRLLRLPQLPPGAQLVKSAWLSLCLQERRLVDVAGFSIFIPSRYLDHPQPSKAEQDASIPPGTHEALLQTALSPPPPPTRPVSPPQKAKEAPNTQAQPISDDEASDGEETQVSAADLEALISGHYPTSLEGDCEPSPAPAVLDKWVCAQPSSQKATNHNLHITEKLEVLAKAYSVQGDKWRALGYAKAINALKSFHKPVTSYQEACSIPGIGKRMAEKIIEILESGHLRKLDHISESVPVLELFSNIWGAGTKTAQMWYQQGFRSLEDIRSQASLTTQQAIGLKHYSDFLERMPREEATEIEQTVQKAAQAFNSGLLCVACGSYRRGKATCGDVDVLITHPDGRSHRGIFSRLLDSLRQEGFLTDDLVSQEENGQQQKYLGVCRLPGPGRRHRRLDIIVVPYSEFACALLYFTGSAHFNRSMRALAKTKGMSLSEHALSTAVVRNTHGCKVGPGRVLPTPTEKDVFRLLGLPYREPAERDW
For B1, the “nuclear/cytosolic ratio in mouse embryonic fibroblasts” value is given as 8.
